Measurements taken from patent publication US20250188166A1 (BRIGHT PEAK THERAPEUTICS, published 2025).

What follows are binders tested against T1, IL-18R on HEK-Blue IL18R reporter cells (UniProt Q13478 19-541; O95256 20-599) (assay: cell-based or functional assay).
T1 sequence (looked up) 1: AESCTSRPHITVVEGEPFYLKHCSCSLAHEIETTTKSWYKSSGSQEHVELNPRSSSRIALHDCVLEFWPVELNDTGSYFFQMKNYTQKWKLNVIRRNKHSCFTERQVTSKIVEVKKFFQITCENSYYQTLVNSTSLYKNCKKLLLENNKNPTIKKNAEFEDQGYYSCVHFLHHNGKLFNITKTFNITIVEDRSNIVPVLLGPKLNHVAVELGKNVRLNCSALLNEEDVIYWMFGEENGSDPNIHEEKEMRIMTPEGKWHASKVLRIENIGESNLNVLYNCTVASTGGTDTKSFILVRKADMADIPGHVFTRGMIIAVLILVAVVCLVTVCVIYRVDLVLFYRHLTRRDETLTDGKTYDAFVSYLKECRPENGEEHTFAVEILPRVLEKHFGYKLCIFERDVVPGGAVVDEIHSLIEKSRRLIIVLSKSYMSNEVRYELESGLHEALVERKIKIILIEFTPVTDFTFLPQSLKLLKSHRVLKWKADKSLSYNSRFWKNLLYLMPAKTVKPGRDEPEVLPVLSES
T1 sequence (looked up) 2: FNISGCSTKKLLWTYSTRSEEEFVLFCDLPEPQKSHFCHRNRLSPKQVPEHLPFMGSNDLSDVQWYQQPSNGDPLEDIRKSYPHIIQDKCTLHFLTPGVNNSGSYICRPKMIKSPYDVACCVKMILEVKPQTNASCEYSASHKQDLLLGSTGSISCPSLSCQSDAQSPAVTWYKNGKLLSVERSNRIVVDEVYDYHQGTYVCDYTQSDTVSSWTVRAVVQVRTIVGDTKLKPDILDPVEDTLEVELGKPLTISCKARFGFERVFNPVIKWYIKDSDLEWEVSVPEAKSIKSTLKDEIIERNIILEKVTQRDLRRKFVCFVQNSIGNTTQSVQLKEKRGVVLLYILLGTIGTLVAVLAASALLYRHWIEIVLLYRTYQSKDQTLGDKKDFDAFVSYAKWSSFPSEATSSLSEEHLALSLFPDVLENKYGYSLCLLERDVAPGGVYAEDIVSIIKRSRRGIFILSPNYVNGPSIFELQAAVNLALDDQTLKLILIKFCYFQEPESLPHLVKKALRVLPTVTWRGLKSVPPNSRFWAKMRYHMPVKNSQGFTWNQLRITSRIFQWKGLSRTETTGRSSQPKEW

| Binder | EC50, HEK-Blue IL18R SEAP reporter [pM] |
| --- | --- |
| IL-18 polypeptide C142 (ligand) MFGKLKSKLSIIRNLNDQVLFIDQGNRPLFEDMTDSDARDNAPRTIFIISMYADSQPRGMAVAISVKCEKISTLSAENKIISFKEMNPPDNIKDTKSDIIFFQRSVPGHDNKMQFESSSYEGYFLAAEKERDLFKLILKKEDELGDRSIMFTVQNED | 0.02 |
| IL-18 polypeptide C152 (ligand) YFGKLESKLSIIRNLNDQVLFIDQGNRPLFEDMTDADARDNAPRTIFIISMYADSQPRGMAVTISVKCEKISTLSAENKIISFKEMNPPDNIKDTKSDIIFFQRSVPGHDNKMQFESSSYEGYFLAAEKERDLFKLILKKEDELGDRSIMFTVQNED | 0.25 |
| IL-18 polypeptide C150 (ligand) YFGKLESKLSIIRNLNDQVLFIDQGNRPLFEDMADSDARDNAPRTIFIISMYADSQPRGMAVTISVKCEKISTLSAENKIISFKEMNPPDNIKDTKSDIIFFQRSVPGHDNKMQFESSSYEGYFLAAEKERDLFKLILKKEDELGDRSIMFTVQNED | 0.7 |
| IL-18 polypeptide C161 (ligand) YFGKLESRLSIIRNLNDQVLFIDQGNRPLFEDMTDSDARDNAPRTIFIISMYKDSQPRGMAVTISVKCEKISTLSAENKIISFKEMNPPDNIKDTKSDIIFFERSVPGHDNKMQFESSSYEGYFLAAEKERDLFKLILKKEDELGDRSIMFTVQNED | 2.01 |
| IL-18 polypeptide C154 (ligand) YFGKLESKLSIIRNLNDQVLFIDQGNRPLFADMTDSAARDNAPRTIFIISMYADSQPRGMAVTISVKCEKISTLSAENKIISFKEMNPPDNIKDTKSDIIFFQRSVPGHDNKMQFESSSYEGYFLAAEKERDLFKLILKKEDELGDRSIMFTVQNED | 11.9 |
| IL-18 polypeptide C163 (ligand) YFGKLESKLSIIRNLNDQVLFIDQGNRPLFEDMTDSDARDNAPRTIFIISMYKDSQPRGMAVTISVKCEKISTLSAENKIISFKEMNPPDNIKDTKSDIIFFKRSVPGHDNKMQFESSSYEGYFLAAEKERDLFKLILKKEDELGDRSIMFTVQNED | 1.5 |
| IL-18 polypeptide C155 (ligand) YFGKLESKLSIIRNLNDQVLFIDQGNRPLFEDMTDSDARANAPRTIFIISMYADSQPRGMAVTISVKCEKISTLSAENKIISFKEMNPPDNIKDTKSDIIFFQRSVPGHDNKMQFESSSYEGYFLAAEKERDLFKLILKKEDELGDRSIMFTVQNED | 0.52 |
| IL-18 polypeptide C160 (ligand) YFGKLESKLSIIRNLNDQVLFIDQGNRPLFEDMTDSDARDNAPRTIFIISMYADSQPRGMAVTISVKCEKISTLSAENKIISFKEMNPPDNIKDTKSDIIFFQRSVPGHANKMQFESSSYEGYFLAAEKERDLFKLILKKEDELGDRSIMFTVQNED | 2.02 |
| IL-18 polypeptide C145 (ligand) YFGKLESKLSIIRNLNDQVLFIDQGNRPLFEDMTDSDARDNAPRTIFIISMYADAQPRGMAVTISVKCEKISTLSAENKIISFKEMNPPDNIKDTKSDIIFFQRSVPGHDNKMQFESSSYEGYFLAAEKERDLFKLILKKEDELGDRSIMFTVQNED | 3.63 |
| IL-18 polypeptide C157 (ligand) YFGKLESKLSIIRNLNDQVLFIDQGNRPLFEDMTDSDARDNAPRTIFIISMYADSQPRGMAVTISVKCEKISTLSAENKIISFKEMNPPDNIKDTKSDIIFFQRSVPGHDNKMQFESSSYEGYFLAAEKERALFKLILKKEDELGDRSIMFTVQNED | 1.95 |
| IL-18 polypeptide C153 (ligand) YFGKLESKLSIIRNLNDQVLFIDQGNRPLFEDMTDSAARDNAPRTIFIISMYADSQPRGMAVTISVKCEKISTLSAENKIISFKEMNPPDNIKDTKSDIIFFQRSVPGHDNKMQFESSSYEGYFLAAEKERDLFKLILKKEDELGDRSIMFTVQNED | 14.1 |
| IL-18 polypeptide C149 (ligand) YFGKLESKLSIIRNLNDQVLFIDQGNRPLFADMTDSDARDNAPRTIFIISMYADSQPRGMAVTISVKCEKISTLSAENKIISFKEMNPPDNIKDTKSDIIFFQRSVPGHDNKMQFESSSYEGYFLAAEKERDLFKLILKKEDELGDRSIMFTVQNED | 6.6 |
| IL-18 polypeptide C146 (SEQ ID NO: 68) (ligand) YFGKLESKLSIIRNLNDQVLFIDQGNRPLFEDMTDSDARDNAPRTIFIISGYADSQPRGMAVTISVKCEKISTLSAENKIISFKEMNPPDNIKDTKSDIIFFQRSVPGHDNKMQFESSSYEGYFLAAEKERDLFKLILKKEDELGDRSIMFTVQNED | 0.8 |
| IL-18 polypeptide C162 (ligand) YFGKLESELSIIRNLNDQVLFIDQGNRPLFEDMTDSDARDNAPRTIFIISMYKDSQPRGMAVTISVKCEKISTLSAENKIISFKEMNPPDNIKDTKSDIIFFRRSVPGHDNKMQFESSSYEGYFLAAEKERDLFKLILKKEDELGDRSIMFTVQNED | 2.3 |
| IL-18 polypeptide C144 (ligand) YFGKLESKLSIIRNLNDQVLFIDQGNRPLFEDMTDSDARDNAPRTIFIISMYADSQPRGMAVAISVKCEKISTLSAENKIISFKEMNPPDNIKDTKSDIIFFQRSVPGHDNKMQFESSSYEGYFLAAEKERDLFKLILKKEDELGDRSIMFTVQNED | 0.17 |
| IL-18 polypeptide C148 (ligand) YAGKLESKLSIIRNLNDQVLFIDQGNRPLFEDMTDSDARDNAPRTIFIISMYADSQPRGMAVTISVKCEKISTLSAENKIISFKEMNPPDNIKDTKSDIIFFQRSVPGHDNKMQFESSSYEGYFLAAEKERDLFKLILKKEDELGDRSIMFTVQNED | 7.28 |
| IL-18 polypeptide C143 (ligand) YFGKLESKLSIIRNLNDQVLFIDQGNRPLFEDMTDSDARDNAPRTIFIISMYADSQPRGMAVTISVKCEKISTLSAENKIISFKEMNPPDNIKDTKSDIIFFQRSVPGHDNKMQFESSSYEGYFLAAEKERDLFKLILKKEDELGDRSIMFTVQNED | 0.98 |
| IL-18 polypeptide C164 (ligand) YFGKLESKLSIIRNLNDQVLFIDQGNRPLFEDMTDSDARDNAPRTIFIISMYKDHQPRGMAVTISVKCEKISTLSAENKIISFKEMNPPDNIKDTKSDIIFFQRSVPGHDNKMQFESSSYEGYFLAAEKERDLFKLILKKEDELGDRSIMFTVQNED | 3.14 |
| IL-18 polypeptide C158 (ligand) YFGKLESKLSIIRNLNDQVLFIDQGNRPLFEDMTDSDARDNAPRTIFIISMYADSQPRGMAVTISVKCEKISTLSAENKIISFKEMNPPDNIKDTKSDIIFFQRSVPAHDNKMQFESSSYEGYFLAAEKERDLFKLILKKEDELGDRSIMFTVQNED | 15.6 |
| IL-18 polypeptide C156 (ligand) YFGKLESKLSIIRNLNDQVLFIDQGNRPLFEDMTDSDARDAAPRTIFIISMYADSQPRGMAVTISVKCEKISTLSAENKIISFKEMNPPDNIKDTKSDIIFFQRSVPGHDNKMQFESSSYEGYFLAAEKERDLFKLILKKEDELGDRSIMFTVQNED | 11.7 |
| IL-18 polypeptide C159 (ligand) YFGKLESKLSIIRNLNDQVLFIDQGNRPLFEDMTDSDARDNAPRTIFIISMYADSQPRGMAVTISVKCEKISTLSAENKIISFKEMNPPDNIKDTKSDIIFFQRSVPGADNKMQFESSSYEGYFLAAEKERDLFKLILKKEDELGDRSIMFTVQNED | 19.5 |
| IL-18 polypeptide C151 (ligand) YFGKLESKLSIIRNLNDQVLFIDQGNRPLFEDMTASDARDNAPRTIFIISMYADSQPRGMAVTISVKCEKISTLSAENKIISFKEMNPPDNIKDTKSDIIFFQRSVPGHDNKMQFESSSYEGYFLAAEKERDLFKLILKKEDELGDRSIMFTVQNED | 13.1 |
| IL-18 polypeptide C147 (ligand) YFGKLESKLSIIRNLNDQVLFIDQGNRPLFEDMTDSDARDNAPRTIFIISMYAASQPRGMAVTISVKCEKISTLSAENKIISFKEMNPPDNIKDTKSDIIFFQRSVPGHDNKMQFESSSYEGYFLAAEKERDLFKLILKKEDELGDRSIMFTVQNED | 1 |
